# Results taken from US20240026017A1 (Kyowa Kirin, published 2024).
# T1: human CC chemokine receptor 1 (human CCR1) (human, UniProt P32246 1-355)
# T1 construct: endogenous on THP-1 cells in the migration assays; also called hCCR1; CHO-S-hCCR1 (expressing cells)
# T1 sequence: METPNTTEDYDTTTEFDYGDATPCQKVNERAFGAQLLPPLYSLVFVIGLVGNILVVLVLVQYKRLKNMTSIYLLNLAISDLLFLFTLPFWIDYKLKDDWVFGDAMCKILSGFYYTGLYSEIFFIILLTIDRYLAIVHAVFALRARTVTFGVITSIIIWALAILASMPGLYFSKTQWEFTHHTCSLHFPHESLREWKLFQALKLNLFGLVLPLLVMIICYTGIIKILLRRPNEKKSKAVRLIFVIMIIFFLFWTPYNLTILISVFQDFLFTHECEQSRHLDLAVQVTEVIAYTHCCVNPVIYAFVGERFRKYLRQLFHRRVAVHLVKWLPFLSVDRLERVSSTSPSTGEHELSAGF
# Molecular target: T1, human CC chemokine receptor 1 (human …)
# Test: flow cytometry on CHO-S-hCCR1 cells; bound = fluorescence 10 times or more that of isotype control hzDNP1
# Protocol: (§1) The antigen affinity of the chKM5908′ antibody, which is a VL-substituted chimeric antibody, was measured by flow cytometry using the CHO-S-hCCR1 cells produced in Example 2. The cells were collected by centrifugation, the supernatant was removed, and the cells were suspended in PBS (Staining Medium, hereinafter, abbreviated as SM) containing 2% fetal bovine serum (FBS), 0.05% NaN₃, and 1 mM EDTA. Next, the cells were seeded in a 96-well plate so that the number of cells is 1×10⁵ per well, and the chKM5908′ antibody was added at each final concentration of 10,000, 2,000, 400, 80, 16, and 3.2 ng/mL, and the reaction was performed at 4° C. for 60 minutes. After washing the cells with SM, Goat F (ab′)₂ Anti-Human IgG PE (γ chain specific) (Southern Biotech) diluted 500-fold with SM was added and reacted at 4° C. for 60 minutes. After washing the cells with SM, the cells were resuspended in 50 μL of SM, and the fluorescence intensity was measured by the flow cytometry (FACS Canto II, BD Biosciences).
# Next, a modified antibody was obtained using the method described in Example 12-(3). […] Hereinafter referred to as hzDNP1)] were determined to bind to the human CCR1.
row,Binder,binding result
1,"hzKM5916 LV0HV1 antibody (antibody, V domains shown, humanized; also called hzmAb5916 LV0HV1) VH: QVQLQESGGGLVKPGGSLKLSCAASGFTFSRNAMSWVRQTPDKRLEWVAYISSGSDYIYYADTVKGRFTISRDNAKNTLYLQMSSLKSEDTAMYYCTRFSYGYGKNAPDYWGQGTMVTVSS VL: DIQMTQSPSSLSASVGDRVTITCKASQDINKYIAWYQQKPGKAPKLLIHYTSSLQPGVPSRFSGSGSGTDFSFTISSLQPEDLATYYCLQYDYTMTFGGGTKVEIK",binds
2,"hzKM5916 LV2HV1 antibody (antibody, V domains shown, humanized; also called hzmAb5916 LV2HV1) VH: QVQLQESGGGLVKPGGSLKLSCAASGFTFSRNAMSWVRQTPDKRLEWVAYISSGSDYIYYADTVKGRFTISRDNAKNTLYLQMSSLKSEDTAMYYCTRFSYGYGKNAPDYWGQGTMVTVSS VL: DIQMTQSPSSLSASVGDRVTITCKASQDINKYIAWYQHKPGKGPKLLIHYTSSLQPGVPSRFSGSGSGTDFSFTISSLQPEDLATYYCLQYDYTMTFGGGTKVEIK",binds
3,"hzKM5916 LV0HV3 antibody (antibody, V domains shown, humanized; also called hzmAb5916 LV0HV3) VH: QVQLQESGGGLVKPGGSLKLSCAASGFTFSRNAMSWVRQTPEKRLEWVAYISSGSDYIYYADTVKGRFTISRDNAKNTLYLQMSSLRSEDTAMYYCTRFSYGYGKNAPDYWGQGTMVTVSS VL: DIQMTQSPSSLSASVGDRVTITCKASQDINKYIAWYQQKPGKAPKLLIHYTSSLQPGVPSRFSGSGSGTDFSFTISSLQPEDLATYYCLQYDYTMTFGGGTKVEIK",binds
4,"hzKM5916 LV0HV0 antibody (antibody, V domains shown, humanized; also called hzmAb5916 LV0HV0) VH: QVQLQESGGGLVKPGGSLKLSCAASGFTFSRNAMSWVRQTPDKRLEWVAYISSGSDYIYYADTVKGRFTISRDNAKNTLYLQMSSLKSEDTAMYYCARFSYGYGKNAPDYWGQGTMVTVSS VL: DIQMTQSPSSLSASVGDRVTITCKASQDINKYIAWYQQKPGKAPKLLIHYTSSLQPGVPSRFSGSGSGTDFSFTISSLQPEDLATYYCLQYDYTMTFGGGTKVEIK",binds
5,"hzKM5916 LV2HV3 antibody (antibody, V domains shown, humanized; also called hzmAb5916 LV2HV3) VH: QVQLQESGGGLVKPGGSLKLSCAASGFTFSRNAMSWVRQTPEKRLEWVAYISSGSDYIYYADTVKGRFTISRDNAKNTLYLQMSSLRSEDTAMYYCTRFSYGYGKNAPDYWGQGTMVTVSS VL: DIQMTQSPSSLSASVGDRVTITCKASQDINKYIAWYQHKPGKGPKLLIHYTSSLQPGVPSRFSGSGSGTDFSFTISSLQPEDLATYYCLQYDYTMTFGGGTKVEIK",binds
6,"hzKM5907 LV2bHV0 antibody (antibody, V domains shown, humanized; also called hzmAb5907 LV2bHV0) VH: EVQLLESGGGLVQPGGSLRLSCAASGFTFSRYGMSWVRQAPGKGLEWVSSISATFTYTYYTDNVKGRFTISRDNSKNTLYLQMNSLRAEDTAVYYCAKQDNYAWFDSWGQGTLVTVSS VL: DIVMTQTPLSLPVTSGEPVSISCRSSQSIVHSNGNTFLEWYLKKPGQSPQLLIYKVSSRFSGVPDRFSGSGSGTDFTLKISRVEAEDVGVYYCFQGSHIPWTFGGGTKVEIK",binds
7,"hzKM5907 LV2bHV2b antibody (antibody, V domains shown, humanized; also called hzmAb5907 LV2bHV2b) VH: EVQLLESGGGLVQPGGSLRLSCAASGFTFSRYGMSWVRQAPGKGLEWVASISATFTYTYYTDNVKGRFTISRDNSKNTLYLQMNSLRAEDTAVYYCARQDNYAWFDSWGQGTLVTVSS VL: DIVMTQTPLSLPVTSGEPVSISCRSSQSIVHSNGNTFLEWYLKKPGQSPQLLIYKVSSRFSGVPDRFSGSGSGTDFTLKISRVEAEDVGVYYCFQGSHIPWTFGGGTKVEIK",binds
8,"hzKM5907 LV2bHV4 antibody (antibody, V domains shown, humanized; also called hzmAb5907 LV2bHV4) VH: EVQLLESGGGLVQPGGSLRLSCAASGFTFSRYGMSWVRQAPGKGLEWVASISATFTYTYYTDNVKGRFTISRDNSKNTLYLQMNSLRAEDTGVYYCTRQDNYAWFDSWGQGTLVTVSS VL: DIVMTQTPLSLPVTSGEPVSISCRSSQSIVHSNGNTFLEWYLKKPGQSPQLLIYKVSSRFSGVPDRFSGSGSGTDFTLKISRVEAEDVGVYYCFQGSHIPWTFGGGTKVEIK",binds

# Other lines, results leading:
row,binding result,Binder
1,binds,"hzKM5907 LV2bHV1 antibody (antibody, V domains shown, humanized; also called hzmAb5907 LV2bHV1) VH: EVQLLESGGGLVQPGGSLRLSCAASGFTFSRYGMSWVRQAPGKRLEWVSSISATFTYTYYTDNVKGRFTISRDNSKNTLYLQMNSLRAEDTAVYYCAKQDNYAWFDSWGQGTLVTVSS VL: DIVMTQTPLSLPVTSGEPVSISCRSSQSIVHSNGNTFLEWYLKKPGQSPQLLIYKVSSRFSGVPDRFSGSGSGTDFTLKISRVEAEDVGVYYCFQGSHIPWTFGGGTKVEIK"
2,binds,"hzKM5907 LV2bHV7 antibody (antibody, V domains shown, humanized; also called hzmAb5907 LV2bHV7) VH: EVQVLESGGGLVQPGGSLRLSCAASGFTFSRYGMSWVRQAPGKRLEWVASISATFTYTYYTDNVKGRFTISRDNSKNTLYLQMNSLRAEDTGMYYCTRQDNYAWFDSWGQGTLVTVSS VL: DIVMTQTPLSLPVTSGEPVSISCRSSQSIVHSNGNTFLEWYLKKPGQSPQLLIYKVSSRFSGVPDRFSGSGSGTDFTLKISRVEAEDVGVYYCFQGSHIPWTFGGGTKVEIK"
3,binds,"hzKM5907 LV2bHV3b antibody (antibody, V domains shown, humanized; also called hzmAb5907 LV2bHV3b) VH: EVQLLESGGGLVQPGGSLRLSCAASGFTFSRYGMSWVRQAPGKRLEWVASISATFTYTYYTDNVKGRFTISRDNSKNTLYLQMNSLRAEDTAVYYCTKQDNYAWFDSWGQGTLVTVSS VL: DIVMTQTPLSLPVTSGEPVSISCRSSQSIVHSNGNTFLEWYLKKPGQSPQLLIYKVSSRFSGVPDRFSGSGSGTDFTLKISRVEAEDVGVYYCFQGSHIPWTFGGGTKVEIK"
4,binds,"hzKM5907 LV4HV7 antibody (antibody, V domains shown, humanized; also called hzmAb5907 LV4HV7) VH: EVQVLESGGGLVQPGGSLRLSCAASGFTFSRYGMSWVRQAPGKRLEWVASISATFTYTYYTDNVKGRFTISRDNSKNTLYLQMNSLRAEDTGMYYCTRQDNYAWFDSWGQGTLVTVSS VL: DIVMTQTPLSLPVTLGEPVSISCRSSQSIVHSNGNTFLEWYLKKPGQSPKLLIYKVSSRFSGVPDRFSGSGSGTDFTLKISRVEAEDVGVYYCFQGSHIPWTFGGGTKVEIK"
5,binds,"hzKM5907 LV2bHV3c antibody (antibody, V domains shown, humanized; also called hzmAb5907 LV2bHV3c) VH: EVQLLESGGGLVQPGGSLRLSCAASGFTFSRYGMSWVRQAPGKRLEWVSSISATFTYTYYTDNVKGRFTISRDNSKNTLYLQMNSLRAEDTGVYYCTKQDNYAWFDSWGQGTLVTVSS VL: DIVMTQTPLSLPVTSGEPVSISCRSSQSIVHSNGNTFLEWYLKKPGQSPQLLIYKVSSRFSGVPDRFSGSGSGTDFTLKISRVEAEDVGVYYCFQGSHIPWTFGGGTKVEIK"
6,binds,"hzKM5907 LV4HV0 antibody (antibody, V domains shown, humanized; also called hzmAb5907 LV4HV0) VH: EVQLLESGGGLVQPGGSLRLSCAASGFTFSRYGMSWVRQAPGKGLEWVSSISATFTYTYYTDNVKGRFTISRDNSKNTLYLQMNSLRAEDTAVYYCAKQDNYAWFDSWGQGTLVTVSS VL: DIVMTQTPLSLPVTLGEPVSISCRSSQSIVHSNGNTFLEWYLKKPGQSPKLLIYKVSSRFSGVPDRFSGSGSGTDFTLKISRVEAEDVGVYYCFQGSHIPWTFGGGTKVEIK"

# Molecular target: T1, human CC chemokine receptor 1 (human …)
# Test: flow cytometry on CHO-S-hCCR1 cells; bound = fluorescence 10 times or more that of isotype control chDNP1
# Protocol: as §1
# 1996 June; 33 (9):759-68, hereinafter, referred to as chDNP1)] were determined to be bound to the human CCR1.
row,binding result,Binder
1,binds,"chKM5908′ mut05 (antibody, V domains shown) VH: QVQLKQSGPGLVQPSQSLSITCTVSGFSLNNYGVHWVRQPPGKGLEWLGVTWSAGTTVYNAAFISRLSISKDDSKSQVFFKMNSLQAGDTAIYYCAKDGSRYYTAMDYWGQGTSVTVSS VL: DVVMTQTPLSLPVSLGDQASIFCRSSQSLVHRNGITFFHWYLQKPGQSPKLLIYKVSNRFSGVPDRFSGSGSGTDFTLKISRVAPDDLGVYFCSQGTHVPPTFGGGTKLEIK"
2,binds,"chKM5908′ mut06 (antibody, V domains shown) VH: QVQLKQSGPGLVQPSQSLSITCTVSGFSLNNYGVHWVRQPPGKGLEWLGVIWSAGTTAYNAAFISRLSISKDDSKSQVFFKMNSLQAGDTAIYYCAKDGSRYYTAMDYWGQGTSVTVSS VL: DVVMTQTPLSLPVSLGDQASIFCRSSQSLVHRNGITFFHWYLQKPGQSPKLLIYKVSNRFSGVPDRFSGSGSGTDFTLKISRVAPDDLGVYFCSQGTHVPPTFGGGTKLEIK"
3,binds,"chKM5908′ mut07 (antibody, V domains shown) VH: QVQLKQSGPGLVQPSQSLSITCTVSGFSLNNYGVHWVRQPPGKGLEWLGVIWSAGTTVYNAAAISRLSISKDDSKSQVFFKMNSLQAGDTAIYYCAKDGSRYYTAMDYWGQGTSVTVSS VL: DVVMTQTPLSLPVSLGDQASIFCRSSQSLVHRNGITFFHWYLQKPGQSPKLLIYKVSNRFSGVPDRFSGSGSGTDFTLKISRVAPDDLGVYFCSQGTHVPPTFGGGTKLEIK"
4,binds,"chKM5908′ mut04 (antibody, V domains shown) VH: QVQLKQSGPGLVQPSQSLSITCTVSGFSLNNYGVHWVRQPPGKGLEWLGVIWSAGTTVYNAAFISRLSISKDDSKSQVFFKMNSLQAGDTAIYYCAKDGSRYYTAMDYWGQGTSVTVSS VL: DVVMTQTPLSLPVSLGDQASIFCRSSQSLVHRNGITFAHWYLQKPGQSPKLLIYKISNRFSGVPDRFSGSGSGTDFTLKISRVAPDDLGVYFCSQGTHVPPTFGGGTKLEIK"
